# Laboratory results taken from patent US20260144867A1 (TIGATX, published 2026).
# B1: anti-EGFR IgA3.0min DP3 (antibody, V domains shown)
# VH: QVQLVQSGAEVKKPGASVKVSCKASGYTFTSHWMHWVRQAPGQGLEWIGEFNPSNGRTNYNEKFKSKATMTVDTSTNTAYMELSSLRSEDTAVYYCASRDYDYDGRYFDYWGQGTLVTVSS
# VL: DIQMTQSPSSLSASVGDRVTITCSASSSVTYMYWYQQKPGKAPKLLIYDTSNLASGVPSRFSGSGSGTDYTFTISSLQPEDIATYYCQQWSSHIFTFGQGTKVEIKR
# notes: also called anti-EGFR IgA3.0min DS3
# Target: T1, EGFR expressed on A431, A1207 and D562 cell lines (human, UniProt P00533 25-1210)
# T1 construct: whole, on cells; also called EGFR-expressing A431 cell line
# Test: competitive flow cytometry on A431 cells; blocked ligand: fluorescently labeled EGF (EGF-AL488)
binder,measurement,value
B1,IC50 (read off the curve),~3 µg/mL
